Results published in PMC3688787.
Square brackets hold non-standard residues; d marks the D form. Ends that are not written are not given here. Hyp = O=C(O)[C@@H]1C[C@@H](O)CN1

How the values were obtained:
Experiment in all cases: ELISA; ELISA-based binding assay: pVHL variant (10 µg/ml, 100 µl) coated on the plate overnight at 4°C, blocked with 5% BSA; TAMRA-labelled Hyp402-ODD peptide added at increasing concentrations, 1 h at 25°C; high salt buffer (10 mM Tris-HCl pH 8.5, 500 mM NaCl) without Arginine; fluorescence at 580 nm
[1] = biological target: pVHL F119L mutant, 19 kDa form (human)
[2] = biological target: pVHL F136L mutant, 19 kDa form (human)
[3] = biological target: pVHL N78S mutant, 19 kDa form (human)

B1: Hyp402-ODD target peptide of HIF-1α (peptide)
peptide: LDLEALA[Hyp]YIPADDDFQLRS
modifications: also: TAMRA (rhodamine) label, end not given here
fold lower affinity than the WT [1]: 2.5 fold
fold lower affinity than the WT [2]: 5 fold
fold lower affinity than the WT [3]: 2 fold
